Experiment [1] has as its target Spike of live SARS-CoV-2 WT virus (SARS-CoV-2, UniProt P0DTC2 14-1273). Nature of the experiment: cell-based or functional assay.
The target in experiment [2] is T1, SARS-CoV-2 S2 (40590-V08B, Sino Biological) (SARS-CoV-2, UniProt P0DTC2 686-1213).
T1 construct: domain: S2
Kind of experiment: ELISA on coated protein, anti-human IgG-HRP; AUC of the OD. In general terms: An ELISA detects its analyte on a solid surface through an enzyme-linked reagent.

Experiment [3] deals with T2, SARS-CoV-2 S1+S2 (40589-V08B1, Sino Biological) (SARS-CoV-2, UniProt P0DTC2 16-1213). Described as above.
Experiment [4] concerns the target T3, SARS-CoV-2 S1 (40591-V08H3, Sino Biological) (SARS-CoV-2, UniProt P0DTC2 16-685).
T3 construct: domain: S1
The description is as above.

Experiment [5] deals with T1, SARS-CoV-2 S2 (40590-V08B, Sino …). Nature of the experiment: ELISA, hmAb at 10 and 1 ug/ml in duplicate; AUC.
Experiment [6] has as its target T2, SARS-CoV-2 S1+S2 (40589-V08B1, Sino …). Nature of the experiment: ELISA, hmAb at 10 and 1 ug/ml in duplicate; AUC.
The target in experiment [7] is T3, SARS-CoV-2 S1 (40591-V08H3, Sino …). Kind of experiment: ELISA, hmAb at 10 and 1 ug/ml in duplicate; AUC.

B1: 1212C2 (antibody, V domains shown)
VH: QVQLVQSGAEVKKPGASVKVSCKASGYIFTDYFIHWVRQAPGQGLEWMGWINPNSGGTKYAQKFQGRVTMTRDTSISTVYMELSRLRSDDTAVHYCTRDLPLRTLYDSYGFDSWGQGTLVTVSS
VL: LPVLTQPASVSGSPGQSITISCTGTSSDVGSYNLVSWYQQHPGKAPKLMIYDVSKRPSGVSNRFSGSKSGNTASLTISGLQAEDEADYYCCSYAGNSIVFFGGGTKLTVL
Turning to B1, the “Neutralization IC50 (µg/ml), Live Virus WT” value in experiment [1] is 0.003 µg/mL.

B2: 1242D11 (antibody, V domains shown)
VH: QVQLVQSGGGLVQPGGSLRLSCAVSGFTFSSYWMSWVRQAPGKGLEWVANIKQDGSEKYYVDSVKGRFTISRDNAKNSLFLQMNSLRAEDTAVYYCAREAVGYYYDSRGYHYSWYFDLWGRGTLVTVSS
VL: EIVLTQSPGTLSLSPGERATLSCRASQSVSSSYLVWYQQKPGQAPRLLIFGASSRATGIPDRFSGSGSGTDFTLTISSLEPEDFAVYYCQHYGSSPPMYTFGQGTKLEIK
Consider B2, for which the “Binding AUC” value in experiment [2] was found to be 24.4; in experiment [3], 21.4; in experiment [4], 2.9; in experiment [5], 24.4; in experiment [6] it was 21.4; in experiment [7], 2.9. The binding result in experiment [4] was “no binding”.

B3: 1232D5 (antibody, V domains shown)
VH: EVQLVESGGGVVQPGGSLRLSCAASGFTFSNYGMHWVRQAPSKGLEWVAFIRYDGTNKYYADSVKGRFTISRDNSKNTLYLQINSLRAEDTAVYYCAIIAVAGDVNPDYWGQGTLVTVSS
VL: not shown
As for B3, the “Binding AUC” value came out at 11.7 in experiment [3], 1.1 in experiment [4], 11.7 in experiment [6] and 1.1 in experiment [7]. For the same molecule, the binding result in experiment [4] was “no binding”.

B4: 1235C10 (antibody, V domains shown)
VH: EVQLVESGGGLVQPGRSLRLSCTASGFTFGDHSMSWVRQAPGKGLEWVGFIRSKAYGGTTEYAASVKGRFTISRDDSKSIAYLQMNSLKIEDTAVYYCTRGLTGLDYWGQGMLVTVSS
VL: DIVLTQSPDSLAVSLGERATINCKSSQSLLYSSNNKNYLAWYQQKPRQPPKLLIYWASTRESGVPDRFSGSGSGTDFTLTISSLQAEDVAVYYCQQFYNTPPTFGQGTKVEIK
notes: Recombinant human IgG1
In the case of B4, the “Binding AUC” value in experiment [2] was 26.9; in experiment [3], 25.2; in experiment [4], 0.8; in experiment [5], 26.9; in experiment [6], 25.2; in experiment [7], 0.8. For the same molecule, the binding result in experiment [7] was “no binding (tested: 10 ug/ml)”. Further, in experiment [1], the “Neutralization IC50 (µg/ml), Live Virus WT” value worked out at 10.4 µg/mL.

B5: 1242F11 (antibody, V domains shown)
VH: QVQLVQSGGGLVQPGGSLRLSCAASGFTFSSYWMTWVRQAPGKGLEWVANIKQDGREIYYVDSVKGRFTLSRDNAKNSLYLQMNSLRAEDTAVFYCARIRVFVSADSEGYHYYYGLDVWGQGTTVTVSP
VL: not shown
With B5, the “Binding AUC” value in experiment [3] was found to be 24.1; in experiment [4], 1.9.

B6: 1246H7 (antibody, V domains shown)
VH: QVQLQQSGPGLMKPSETLSLTCTVSGGSISSSSYYWGWIRQPPGKGLEWIGSIYYSGATYYNPSLKSRVTISVDTSKNQLSLKLSSVTAADTAVYYCVNRYYDYVWGSWGVDCWGQGTLVTVSS
VL: QAGLTQPRSVSGSPGQSVTISCTGTSSDVGGYNYVSWYQQHPGKAPKLMIYDVNKRPSGVPDRFSGSKSGNTASLTISGLQAEDEADYFCCSYAGSYTYWVFGGGTKLTVL
With B6, the “Binding AUC” value amounted to 4.8 in experiment [2]; 5 in experiment [3]; 1.7 in experiment [4]; 4.8 in experiment [5]; 5 in experiment [6]; 1.7 in experiment [7]. Further, the binding result in experiment [4] was “no binding”.

These data come from patent publication US20240270828A1 (UAB RESEARCH FOUNDATION, published 2024).
